Assay: yeast display, Sf9 membrane polyspecificity reagent, FACS + sequencing; frameworks hold sequencing errors
In short: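 A synthetic nanobody library was expressed on Saccharomyces cerevisiae BJ5465 by galactose induction for 36–48 hours. The library was stained for 1 hour at 4 °C with 10% biotinylated, detergent-solubilized Sf9 membrane reagent and enriched with streptavidin microbeads before FACS. Low and high (top ~1%) gates were set on anti-HA fluorescence for expression and streptavidin fluorescence for reagent binding, and each polyreactivity label reflects the gate of origin.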

Row | Sequence | polyreactivity (PSR sort gate)
1 | QVQLVESGGGLVQAGGSLRLSCAASGIILPRYAMGWYRQAPGKERELVAAISRGGGTYYADSVKGRFTISRDNAKNTVYLQMNSLIPEDTAVYYCAAAYVFVGSSHYYWGQGTQVTVSS | high polyreactivity
2 | QVQLVETGGGLVQAGGSLRLSCAASVRIFFVYAMGWYRQAPGKERELVAAITYDDGDTFYADSVKGRFTISRDNAKNTVYLQMNSLKPEDTAVYYCAAEGYSYIQSDLDYWGQGTQVTVSS | high polyreactivity
3 | QVQLVESGGGLVQAGGSLRLSCAASGLPFRYNVMGWYRQAPGKETALGATISTSAGDTYYADSVKGRFTISRDNAKNTVYLQMNSLKPEDTAVYYCNAEAWYSVEYDDWGQGTQVTVSS | low polyreactivity
4 | QVQLVESGGGLVQAGGSLRLSCAASGGTFKTYVMGWSRQEPGKERELVAVISGSGASTYYADSVKGRFTISRDNAKNTVYLQMNSLKPEDTAVYYCAARYAWGWSGYYYWGQGTQVTVSS | high polyreactivity
5 | QVQLVESGGGLVQAGGSLRLSCAASGIIFRRYAMGWYRQEPGKARELVAAITSGGDTNYADSVKGRFTLSRDNAKNTVYLQMNSLKPEDTAVYYCNAGLRGVRRYGFDYWGQGTQVTVSS | high polyreactivity
6 | QVQLEESGGALVQAGGSLRLSCAASGNTFGPKAMGWYRQAPGKERELVASINIGGRTNYADSVKGRFTISRDNAKNSVYLQLKSLKPEDTAVYYCNAGSGVQVVWYNAYREYEYWGQGTQVTVSS | low polyreactivity
7 | QGQLVESGGGLVQAGGRLRLSCAASGFIFCIYAMAWYRTATGKQREFVAVSTYRGDTKYYADSVKGRFTISRDNAKNTVYLQMNSLKAEDTAVYSCAAYTVQKYGYWGQGTQVTVSS | low polyreactivity
8 | QVQLVESGGGLVQAGGSLRLSCAASGLIFPYNAMGWYRQAPGKERELVAAIDTRGSSTYYADSVKGRFTISRDNAKNTVYLQMNSLKPEDTAVYYCAADYRVQLRKEYDYWGQGTQVTVSS | high polyreactivity
9 | QVQLVESGGGLVQAGGSLRLSCAASGSIFKVYAMGWYRQAPGKERELVAAITGSGGSTYYADSVKGRFTISRDNAKNTVYLQMNSLKPEDTAVYYCNTDYYYSGYFRRFDYWGQGTQVTVSS | high polyreactivity
10 | QVQHVESGGVLVQAGGSLRLSCAASGSIFYPNAMGWYRQAPGKERELVAAISSSGGTNYADSVKGRFTISRDNAKNTVYLQMNSLKPEDTAVYYCNARDKVRYRFSRMDYWGQGTQVTVSS | low polyreactivity
11 | QVQLVESRGGLVQAGGSLRLSCAPSGIIFVRYAMGWYRQAPGKETELVAAISSSGGSTYYADSVKGRFTISRDNAKKTVYLQMNSLKPEDTAVYYCNARHRQWARGYWGQGTQVTVSS | high polyreactivity
12 | QVHLVESAGGLVQAGGSLRLSCAPSGSTFPLYVMGWYRQAPGKERELVAAIDWSGGSTYYADSVKGRFTISRDNAKNTVYLQMNRLKPEDSAVYYCNARYLRRGDYWGQGTQVTVSS | low polyreactivity
13 | QVQLVESGGGLVQAGGSLRISCAASGRTFVVYAMGWYRPAPGKERELVAAIRGSGGSTNYADSVKGRFTISRDNAKNTVYLQMNSLKPEDTAVYYCAATSSLGDFRYDYWGQGTQVTVSS | high polyreactivity
14 | QVQLVESGGGLVQAGGSLRLSCAASGSIFDVNTMGWYRQAPGKERELVAAITNGDRTNYADSVKGRFTISRDNAKNTVYLQMNSLKPEDTAVYYCAADSVLDRPVLYLWPWYLGDYWGQGTQVTVSS | low polyreactivity
15 | QVQLVESGGGLVQAGGTLRLSCAASGFIFGYNAMGWYRQAPGKERELVARINSGGNTNYADSVKGLFSISRDNAKNTVYLLMNSLKPEDTAVYYCARDASNRYDYWRQGTQVTVSS | low polyreactivity
16 | QVQLVESGGGLVQAGGSLRLSCAASGSTFYRYAMGWYRQAPGNERELVAVLRYTSGRTYYADSVKGRFTISRDNAKYTVYLQMNSLKREDTAVYYCATDPYGTRGTDSRYNYWGQGIQVTVSS | high polyreactivity
17 | QVQLVESGGGLVQAGFSLRLSCAASGFTFKYYAMGWYRQAPGKERELVAAISSGGSTYYADSVKGRFTISRDNAKNTVYLQMNSLKPEDTAVYYCNRRFAPFWGRYGYWGQGTKVTVSS | high polyreactivity
18 | QVQLVESGGGLVQAGGSLRLSCAASAFTFQNYAMGWYRQAPGKERELVAAIDSRGGRTYYADSVKGRFTISRDNAKNTVYLQMNSLKPEDTADDYCAVAENSRFGSVGYYYWGQGTQVTVSS | low polyreactivity
19 | QVQLVESGGGLVQAGGSLRLSCAASGSTFCDNAMGWYRQAPGNERELVAAISMSGGRTYYADSVKGRFTISRDNAKNTVYLQMNSLKPEDTAVYYCAAVGNRRYYFGYDYWGQGSQVTVSS | high polyreactivity
20 | QDQLVESGGGLVQAGGSLRLSCAASGSIFTDNVMGWYRQATGKERELVAAITSTGGNTYYADSVKGRFTISRDNAKNTVYLQMNSLKREDTAVYYSNKDVARYPYGKFDYWGQGTQVTVSS | low polyreactivity
21 | QVQLVESGGGLVQAGGSLRLSCAASGRIFRWYAMGWYRQAPGKERELVASISRGGSTYYADSVKGRFTISRDNAKNTVYLQMNSLKPEDTAVYYCNVKYKYDRAYGEYDYWGQGTQVTVSS | high polyreactivity

Row | Sequence | polyreactivity (PSR sort gate)
22 | QVQLVESGGGLVQAGGSLRLSCAASGSTQYWNAMGWYRQAPGKERELVAAISRSGGSTYYADSVKGRFTISRDNAKNTVYLQINSLKPEDTAVYYCAARRYVPHTEYYYWGQGTQVTVSS | low polyreactivity
23 | QVQLQESGGGLVQAGGSLRLSCAASGSISGPHVMGWYRQAPGKEREFVAAINVGANTYYADNVKGRFTISRDNANNTVYLQMNSLKPEDTAVYYCAAVYYGDIGHEYWGQGTQVTVSC | low polyreactivity
24 | QVQLVESGGGLVHAGGSLRLSCAASGSTFLPNVMGWYRQAPGTERELVAANSSRGGRTYYADSVKGRFTISRDNAKNTVYLQMNSLKPEDTAVYYCAAYTRDTTGSAGIYRDDYWGQGTQVTVSS | high polyreactivity
25 | QVQLVESAGGLVQAGGSLRLSCAASGAIFGGYAMGWYRQAPGKERELVAAISSSGGSTYFADSVKGRFTISRDNEKNTVYLQMNSLKPEDTAVYYCAAKYQRRYYYWGQGTQVTVSS | high polyreactivity
26 | QVQLVESGGGLVQAGGSLRLSCAASGRLFHPYAMGWYRQAPGKERELVARITTSGGSTSYADSVKGRFTISRDNAKNTVYLQMNSLKPEDTAVYYSAADRARYYSEYDYWGQGTQVTVSS | low polyreactivity
27 | QVQLVESGGGLVQAGGGLRLSCAASGNTFRYYAMGWYIQAPGKERELVATITSGGRTYYADSVKGRFTISRDNAKNTVYLQMNSLKPEDTAVYYCNADYFQDRLDYWGQGTQVTVSS | low polyreactivity
28 | QVQLVESGGGLVQAGGSLRLSSAPSGRIFDHYAMGWYRQAHGKERELGAAITRSGGITYYADSVKGRFTISRDNAKNTVYLQMNSLKPEDTAVYYCAALSYRYTDKFDYWGQGTQVTVSS | low polyreactivity
29 | QVQLVESGGGLVQAGGSLRLSCAASGSIFYRNRMGWYRQAPGKERELVAAIRYSGDNTYYADSVKGRFTISRDNAKNTVYLQMNSLKPEDTAVYYCAADFPDYEYWGQGTQVTVSS | high polyreactivity
30 | QVQLVESGGGLDQAGVSLRLSCAASGSTFSANAMGWFRQAPGKERELVAAISSGDITYYADSVKGRFTISRDNAKNTVYLQMNSLKPEDTAVYYCAKYTRPTGNVDDGFEYWGQGTQVTVSS | low polyreactivity
31 | QVQRVESGGGLVQAGGSLRLSCAASGRTFAYYVMGWYRQAPGKERELVAAISWSAGSTYYADSVKGRFTISRDNAKNTVYLQMNSLKPEDTAVYYCAADYRFRYEYWGQGTQVTVSS | low polyreactivity
32 | QVQLVESGGGIVQAGGSLRLSCDGSGSTFTYYAMGWYRQEPGKEWEFVAAISRRGGSTYYADSVKGRFTISRDNAKNTVYFQLNSLKPEDTAVSDCNVVIYSYGINGRYDYWGQGTQVTVSS | high polyreactivity
33 | QVQLEESGGGLVQAGGSLRLSCAASGYTFYLYAMAWYRQSPGKERELVAAISTNGGRTYYADSVKGRFTISRDNAKNTVYLQMNSLKPEDTAVYYCAVRSRGTAPQYYYWGQGTQVTVSS | high polyreactivity
34 | QVQLVESGGGLVQAGGSLRLSCAASGRIFKRNTMGWYRQAPGKERELVAAITRSGGSTHYADSVKGRFTISRDNAKNTVYLQMNSLKPEDTAVYYCAVRAAAIDRLAQFDYWGQGTQVTVSS | low polyreactivity
35 | QVQLVESGGGLVQAGGSLRLSCAASGIIFSGYAKGWSRQAPGKERELVAAISYSGASTYYADSVKGRFTISRDNAKNSVYLLMNSLKPEDTAVYFCAADRRYGRYWNGWSYYYWGQGTQVTVSS | high polyreactivity
36 | QVQLVESGGGLVQAGGSLRLSCAASGRIFKYNAMGWYRQAPGKERELVAAISGTGGSTYYADSVKGRFTISRDNAKNTVYLQMNSLKPEDTAVYYCAARYYIVSLGSGYWGQGTQVTVSS | high polyreactivity
37 | QVQLVESGGGLVQAGGSLRLSCAASGRTFNVNAMGWYRQAPGKERELVAAISSSGTTNYADSVKGRFTISRDNAKNTVYLQMNSLKPEDTAVYYCNKRWRDKYPQYDYWGQGTQVTVSS | low polyreactivity
38 | QVQLVESGGGLVQAGGSLPLSCAASGLIINYYVMGWYRQAPGKERELVAANTISGGRSYYADSVKVRFTISRDNAKNTVYLQMKCLNPEDTAVYYCARRFGPYRKGYQSYGIYDYWGQGTHVTVSS | high polyreactivity
39 | QVQLVESGGGLVQAGGSLRLSCAASGSIFVLNAMGWYRQAPGKERELVAAITNVGSTYYADSVKGRFTISRDNAKNTVYLQMNSLKPEDTAVYYCNAVVATSKYTDYYWGQGTQVTVSS | low polyreactivity
40 | QVQHVESGGGLVQAGGSLRLSCAASGSTIYHYAMGWSRPAHGKERELVAAITTIGGRTYYADSVKGRFTISRDNAKNTVYLQMNSLKPEDTAVYYCAAGYRAWEPYGHYGYWGQGTQVTVSS | high polyreactivity
41 | QVQLVESGGGLVQAGGSLRLSCAASGSTFTRYAMGWYRQEPGKERELVAAITRRGVSTYYSDSVKGRFTISLDNAKNTVYLQMNSLKPEDTAVYYCNADVEHYSTLSEYWGQGTQVTVSS | high polyreactivity
